From paper PMC6398471, “The depolymerase activity of MCAK shows a graded response to Aurora B kinase phosphorylation through allosteric regulation” (Journal of Cell Science, 2019)
Residue numbers refer to the chain shown, from its start.

B1: full-length human MCAK (natural protein, UniProt Q99661 1-725, looked up)
chain: MAMDSSLQARLFPGLAIKIQRSNGLIHSANVRTVNLEKSCVSVEWAEGGATKGKEIDFDDVAAINPELLQLLPLHPKDNLPLQENVTIQKQKRRSVNSKIPAPKESLRSRSTRMSTVSELRITAQENDMEVELPAAANSRKQFSVPPAPTRPSCPAVAEIPLRMVSEEMEEQVHSIRGSSSANPVNSVRRKSCLVKEVEKMKNKREEKKAQNSEMRMKRAQEYDSSFPNWEFARMIKEFRATLECHPLTMTDPIEEHRICVCVRKRPLNKQELAKKEIDVISIPSKCLLLVHEPKLKVDLTKYLENQAFCFDFAFDETASNEVVYRFTARPLVQTIFEGGKATCFAYGQTGSGKTHTMGGDLSGKAQNASKGIYAMASRDVFLLKNQPCYRKLGLEVYVTFFEIYNGKLFDLLNKKAKLRVLEDGKQQVQVVGLQEHLVNSADDVIKMIDMGSACRTSGQTFANSNSSRSHACFQIILRAKGRMHGKFSLVDLAGNERGADTSSADRQTRMEGAEINKSLLALKECIRALGQNKAHTPFRESKLTQVLRDSFIGENSRTCMIATISPGISSCEYTLNTLRYADRVKELSPHSGPSGEQLIQMETEEMEACSNGALIPGNLSKEEEELSSQMSSFNEAMTQIRELEEKAMEELKEIIQQGPDWLELSEMTEQPDYDLETFVNKAESALAQQAKHFSALRDVIKALRLAMQLEEQASRQISSKKRPQ
notes: MCAK (Kif2C), human, full length; also called Kif2C; kinesin-13; source: Sf9 insect cells (pFastBac), purified
B2: MCAKS6E-GFP (natural protein, human, UniProt Q99661 1-725, looked up)
chain: B1 chain with S95E, S109E, S111E, S115E, S166E, S192E
notes: MCAK (Kif2C), human, full length, Aurora B phosphomimetic for six serines in the N-terminus and neck; Site-directed mutagenesis of MCAK-GFP; source: Sf9 insect cells (pFastBac), purified; not shown: GFP, C-terminal, kept
B3: MCAKS2E-GFP (natural protein, human, UniProt Q99661 1-725, looked up)
chain: B1 chain with S166E, S192E
notes: MCAK (Kif2C), human, full length, phosphomimetic in the neck region (Ser192 and Ser166 replaced by glutamate); Site-directed mutagenesis of MCAK-GFP; source: Sf9 insect cells (pFastBac), purified; not shown: GFP, C-terminal, kept
B4: MCAK-GFP (natural protein, human, UniProt Q99661 1-725, looked up)
chain: B1 chain
notes: MCAK (Kif2C), human, full length; also called GFP-tagged MCAK; source: Sf9 insect cells (pFastBac), purified; not shown: GFP, C-terminal, kept
B5: Aurora B-phosphorylated MCAK-GFP (natural protein, human, UniProt Q99661 1-725, looked up)
chain: B1 chain
modifications: phosphorylated in vitro with Aurora B kinase; the sites modified in this sample are not stated
notes: MCAK (Kif2C), human, full length; Phosphorylation protocol is in Welburn et al., 2010; source: Sf9 insect cells (pFastBac), purified, phosphorylated in vitro with Aurora B kinase; not shown: GFP, C-terminal, kept

Legend:
[1] = biological target: Taxol-stabilized microtubules, digoxigenin- and HyLite-647-labeled, P02550;P02554; assay: single-molecule imaging of MCAK-GFP on microtubules; conditions: 32 mM K-PIPES, parent: 6.14e-6
[2] = biological target: the molecule itself; assay: cross-linking; BS3 on MCAK alone: 10 µg MCAK with 20 µg BS3 in 10 mM HEPES pH 7, 200 mM potassium acetate pH 7.6, on ice 1 h; SDS-PAGE, band cut out, mass spectrometry
[3] = biological target: Taxol-stabilized microtubules, digoxigenin- and HyLite-647-labeled (UniProt P02550 1-451; P02554 1-445, 8% of the tubulin digoxigenin-labeled, 3.5% labeled with HyLite-647; chain and residues not stated | 8% of the tubulin digoxigenin-labeled, 3.5% labeled with HyLite-647; chain and residues not stated); assay: single-molecule TIRF microscopy (residence times); microtubules held on the coverslip by anti-DIG antibody; MCAK at 5-100 pM in MRB80 (80 mM K-PIPES pH 6.9, 1 mM EGTA, 4 mM MgCl2) with 1 mM ATP, κ-casein, 40 µM taxol; 23°C; off-rate = 1/τ of a single exponential fit; conditions: both partners purified
Taxol-stabilized microtubules, digoxigenin- and HyLite-647-labeled, sequence (P02550 whole entry, chain 1 of 2): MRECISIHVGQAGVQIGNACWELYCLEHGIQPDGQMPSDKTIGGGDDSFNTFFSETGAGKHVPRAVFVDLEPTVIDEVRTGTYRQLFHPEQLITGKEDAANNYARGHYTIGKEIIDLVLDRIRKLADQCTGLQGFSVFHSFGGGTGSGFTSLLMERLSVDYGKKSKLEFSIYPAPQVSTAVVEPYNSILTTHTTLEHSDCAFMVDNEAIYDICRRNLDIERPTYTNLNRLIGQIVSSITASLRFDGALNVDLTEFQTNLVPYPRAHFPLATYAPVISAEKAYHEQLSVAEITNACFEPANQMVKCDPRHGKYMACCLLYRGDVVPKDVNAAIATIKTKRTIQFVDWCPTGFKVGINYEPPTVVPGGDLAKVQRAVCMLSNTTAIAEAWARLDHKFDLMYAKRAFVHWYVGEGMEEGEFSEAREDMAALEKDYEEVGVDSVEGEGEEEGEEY
Taxol-stabilized microtubules, digoxigenin- and HyLite-647-labeled, sequence (P02554 whole entry, chain 2 of 2): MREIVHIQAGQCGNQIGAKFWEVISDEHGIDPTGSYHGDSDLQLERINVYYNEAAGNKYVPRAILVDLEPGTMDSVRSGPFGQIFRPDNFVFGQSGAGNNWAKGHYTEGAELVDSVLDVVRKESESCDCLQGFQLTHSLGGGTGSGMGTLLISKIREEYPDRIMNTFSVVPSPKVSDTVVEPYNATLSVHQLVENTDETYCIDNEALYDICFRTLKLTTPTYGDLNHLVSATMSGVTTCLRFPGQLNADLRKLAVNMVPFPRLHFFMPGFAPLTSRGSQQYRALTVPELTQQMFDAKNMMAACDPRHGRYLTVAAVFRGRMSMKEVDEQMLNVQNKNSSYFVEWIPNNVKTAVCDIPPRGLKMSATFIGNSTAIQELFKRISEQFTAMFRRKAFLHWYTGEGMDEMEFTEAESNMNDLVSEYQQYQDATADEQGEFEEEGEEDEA

Molecule	koff [3] [s⁻¹]	also measured
MCAK-GFP (from UniProt Q99661) S166E; S192E		kon ([1]; n = 280): 6.72e-06 s⁻¹ nM⁻¹
MCAK-GFP (from UniProt Q99661) S95E; S109E; S111E; S115E; S166E; S192E		kon ([1]; n = 439): 1.1e-05 s⁻¹ nM⁻¹
B1		stoichiometry N [2]: 2
B2	25.8	
B3	3.2	
B4	1.6	
B5	23.4	
